B1: SBT-004 (antibody, V domains shown)
VH: EVQLQQSGPEVGRPGSSVKISCKASGYTFTDYIMHWVKQSPGQGLEWIGWVDPEYGSTDYAEKFKKKATLTADTSSNTAYIQLSSLTSEDTATYFCARDDGSYSPFDYWGQGVMVTVSS
VL: DIQMTQSPPSLSASLGDKVTITCQASQNINKYIAWYQQKPGKAPRLLIRYTSTLESGTPSRFSGSGSGRDYSFSISNVESEDIASYYCLQYVNLLTFGAGTKLEIK
B2: chimeric SBT-004 Fc null (antibody, part only; not given: light chain and Fc null constant region, V domains shown, part only)
VH: B1 VH

Experiments:
[1] = biological target: human TNFR2 on cells (human) (UniProt P20333); test: cell-based or functional assay
[2] = biological target: monomeric human TNFR2 extracellular domain (human) (UniProt P20333); test: BLI (Octet Red 96), Human TNFR2 Kd (1-1)

Chain of human TNFR2 on cells (human) (P20333 23-461): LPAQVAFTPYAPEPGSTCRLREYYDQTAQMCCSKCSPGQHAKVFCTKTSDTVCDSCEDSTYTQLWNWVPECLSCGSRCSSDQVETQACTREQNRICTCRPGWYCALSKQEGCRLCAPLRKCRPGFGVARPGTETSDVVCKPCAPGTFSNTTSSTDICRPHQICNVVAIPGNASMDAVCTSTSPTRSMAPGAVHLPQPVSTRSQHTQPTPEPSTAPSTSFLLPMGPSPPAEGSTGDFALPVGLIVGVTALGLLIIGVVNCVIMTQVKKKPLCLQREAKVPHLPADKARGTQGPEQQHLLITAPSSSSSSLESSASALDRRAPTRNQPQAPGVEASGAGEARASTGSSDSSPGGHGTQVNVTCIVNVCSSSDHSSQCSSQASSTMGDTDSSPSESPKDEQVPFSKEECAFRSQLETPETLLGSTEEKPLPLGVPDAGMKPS

IC50 (µg/mL) (with pre-incubation); rescue of Jurkat H6 cells from 2 ng/mL TNFα, luminescence [1]	IC50 (µg/mL) (without pre-incubation); rescue of Jurkat H6 cells from 2 ng/mL TNFα, luminescence [1]	Kd [2] [nM]	Binder
0.09	0.1	–	B1
–	–	5	B2
